The subject of data set [1] is MMP-9 sensitive peptide (GPRSLSG-RRCG) linked ibuprofen.
For data set [2], the system named is cleavable peptide (1) GCRR-KGPRSLSGK-RRCG.
For data set [3], the system named is MMP-9 peptide substrate M2, GRCR-GPRSLSG-RCRG.
In data set [4] the test system is peptide (3), crosslinker based on substrate AVRWLLTA
Data set [5] deals with non-cleavable scrambled peptide GCRR-KSSRGGPLK-RRCG.

Chain of matrix-metalloprotease-9 (MMP-9), 83 kDa, Merck (chain, as listed by the source): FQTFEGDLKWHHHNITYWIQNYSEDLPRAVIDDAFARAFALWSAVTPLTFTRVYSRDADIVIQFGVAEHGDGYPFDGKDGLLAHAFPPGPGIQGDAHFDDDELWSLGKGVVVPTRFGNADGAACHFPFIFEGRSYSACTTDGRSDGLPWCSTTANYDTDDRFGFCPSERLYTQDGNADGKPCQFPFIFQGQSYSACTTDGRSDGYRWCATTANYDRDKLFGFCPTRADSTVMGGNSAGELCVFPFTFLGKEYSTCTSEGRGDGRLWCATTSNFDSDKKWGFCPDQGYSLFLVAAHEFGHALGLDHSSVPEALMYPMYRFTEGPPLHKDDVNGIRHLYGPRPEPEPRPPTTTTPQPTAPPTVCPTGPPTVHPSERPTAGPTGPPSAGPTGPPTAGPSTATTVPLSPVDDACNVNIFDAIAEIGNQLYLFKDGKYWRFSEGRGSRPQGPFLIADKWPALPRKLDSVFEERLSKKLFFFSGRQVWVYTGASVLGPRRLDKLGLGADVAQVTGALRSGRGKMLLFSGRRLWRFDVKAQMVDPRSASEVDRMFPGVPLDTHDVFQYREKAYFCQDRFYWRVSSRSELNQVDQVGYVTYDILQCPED

Turning to cathepsin B, the “specificity of protease-triggered ibuprofen liberation (FIG. 10B)” value in data set [1] is “the peptide sequence, GPRSLSGRRCG (SEQ ID NO: 20), as a spacer illustrated a good specificity toward MMP-9 compared to cathepsin B and human neutrophil elastase (HNE)”.
As for “matrix-metalloprotease-9 (MMP-9), 83 kDa, Merck”, the “cleavability of hybrid hydrogel (release of PLGA particles into the medium after 20 h with 3 µg/ml MMP-9)” value with peptide (2) was “hydrogels formed with peptides (2), (3), and (6) were not cleaved upon exposure to MMP-9”; in [2], “hybrid hydrogels crosslinked with peptides (1), (4), (5) and (7) could be digested by MMP-9”; with peptide (6), “hydrogels formed with peptides (2), (3), and (6) were not cleaved upon exposure to MMP-9”; in data set [4], “hydrogels formed with peptides (2), (3), and (6) were not cleaved upon exposure to MMP-9”; in the data set with peptide (4), “hybrid hydrogels crosslinked with peptides (1), (4), (5) and (7) could be digested by MMP-9”; in the data set on peptide (7), “hybrid hydrogels crosslinked with peptides (1), (4), (5) and (7) could be digested by MMP-9”. For the same substance, the “cleavability of hybrid hydrogel (release of PLGA particles into the medium after 20 h with 3 µg/ml MMP-9)” value in the data set with peptide (5) was “hybrid hydrogels crosslinked with peptides (1), (4), (5) and (7) could be digested by MMP-9”. For the same substance, the “cumulative drug release from GEL-iP after 4 hours with 3 µg/ml MMP-9” value in [2] is reported as “exposing GEL-iP to MMP-9 for 4 hours significantly boosted the cumulative drug release to 100% compared to only 25% in the absence of MMP-9”. Moreover, in data set [3], the “degradation of H2-M2 combinational hydrogel and release of PLGA particles over 24 hours” value was “H2 and M2 peptide substrates were preferentially cleaved by HNE and MMP-9 proteases respectively”. Further, the “specificity of protease-triggered ibuprofen liberation (FIG. 10B)” value in data set [1] was “the peptide sequence, GPRSLSGRRCG (SEQ ID NO: 20), as a spacer illustrated a good specificity toward MMP-9 compared to cathepsin B and human neutrophil elastase (HNE)”. The “ultimate cumulative drug release at 48 hours from the dual-responsive conjugate hydrogel, MMP-9 alone (2 µg/ml)” value in data set [1] was “the ultimate cumulative release achieved 71%”. Besides, in the data set on ibu-GPQGIWGQ-DRCG, the “LC-MS detection of the liberated fragment in the supernatant after 2 days of hydrogel exposure to MMP9 solution” value is “LC-MS analysis confirmed the presence of the liberated ibuprofen bearing fragment (ibu-GPQG, LC peak at elution time of 14.6 min, MS peak at m/z=546.20)”. The “cumulative drug release from scrGEL-iP after 4 hours with 3 µg/ml MMP-9” value in data set [5] is recorded as “only 40% was released from the hybrid hydrogel crosslinked by the scrambled peptide (scrGEL-iP) at the same condition”.

Source of the values: patent US20230039279.
